The values below come from US20140178332A1 (published 2014).

Experiment [1] concerns the target T1, recombinant purified cyno IL-12 p70 (cynomolgus monkey).
T1 chain 1: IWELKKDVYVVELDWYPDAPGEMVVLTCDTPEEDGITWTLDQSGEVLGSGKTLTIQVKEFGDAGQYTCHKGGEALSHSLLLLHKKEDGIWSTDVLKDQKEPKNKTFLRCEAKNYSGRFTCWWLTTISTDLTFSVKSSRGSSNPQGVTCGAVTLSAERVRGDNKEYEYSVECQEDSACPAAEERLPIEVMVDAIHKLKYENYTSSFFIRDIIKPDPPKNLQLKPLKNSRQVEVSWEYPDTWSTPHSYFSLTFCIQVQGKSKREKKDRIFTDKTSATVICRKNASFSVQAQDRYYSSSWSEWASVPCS
T1 chain 2: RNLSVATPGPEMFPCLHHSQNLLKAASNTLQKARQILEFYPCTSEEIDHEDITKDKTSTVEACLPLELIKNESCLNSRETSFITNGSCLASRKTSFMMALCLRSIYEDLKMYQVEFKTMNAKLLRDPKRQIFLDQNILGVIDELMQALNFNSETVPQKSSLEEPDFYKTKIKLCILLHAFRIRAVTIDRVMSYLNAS
In words: cell-based or functional assay.

Experiment [2] concerns the target T2, recombinant purified human IL-12 p70 (human, UniProt P29459 23-219).
T2 sequence 1: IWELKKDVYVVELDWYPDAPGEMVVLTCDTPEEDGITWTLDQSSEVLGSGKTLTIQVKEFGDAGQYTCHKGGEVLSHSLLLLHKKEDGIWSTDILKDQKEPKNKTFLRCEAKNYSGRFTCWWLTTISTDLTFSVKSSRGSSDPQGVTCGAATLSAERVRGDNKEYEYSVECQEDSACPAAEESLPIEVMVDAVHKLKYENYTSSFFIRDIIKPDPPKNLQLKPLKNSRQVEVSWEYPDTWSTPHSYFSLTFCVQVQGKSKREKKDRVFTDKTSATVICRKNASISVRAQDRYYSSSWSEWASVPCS
T2 sequence 2: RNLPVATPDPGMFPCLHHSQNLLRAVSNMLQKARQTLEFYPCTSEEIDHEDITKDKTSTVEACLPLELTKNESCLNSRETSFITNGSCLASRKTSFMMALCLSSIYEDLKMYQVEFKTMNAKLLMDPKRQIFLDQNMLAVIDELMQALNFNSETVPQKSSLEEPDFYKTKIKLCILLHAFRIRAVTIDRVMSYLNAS
The experiment in a line: cell-based or functional assay.

For experiment [3], the target named is T2, recombinant purified human IL-12 p70. The experiment in a line: SPR (Biacore) as in Example 1.1.B, human IL-12p70. As for the experimental part: Approximately 5000 RU of goat anti-mouse IgG, (Fcγ), fragment specific polyclonal antibody (Pierce Biotechnology Inc, Rockford, Ill.) diluted in 10 mM sodium acetate (pH 4.5) was directly immobilized across a CM5 research grade biosensor chip using a standard amine coupling kit according to manufacturer's instructions and procedures at 25 μg/ml. Unreacted moieties on the biosensor surface were blocked with ethanolamine. Modified carboxymethyl dextran surface in flowcell 2 and 4 was used as a reaction surface. Unmodified carboxymethyl dextran without goat anti-mouse IgG in flow cell 1 and 3 was used as the reference surface. For kinetic analysis, rate equations derived from the 1:1 Langmuir binding model were fitted simultaneously to association and dissociation phases of all eight injections (using global fit analysis) with the use of Biaevaluation 4.0.1 software. Purified antibodies were diluted in HEPES-buffered saline for capture across goat anti-mouse IgG specific reaction surfaces. Mouse antibodies to be captured as a ligand (25 μg/ml) were injected over reaction matrices at a flow rate of 5 μl/min. The association and dissociation rate constants, kₒₙ (unit M⁻¹ s⁻¹) and koff (unit s⁻¹) were determined under a continuous flow rate of 25 μl/min. Rate constants were derived by making kinetic binding measurements at ten different antigen concentrations ranging from 10-200 nM. The equilibrium dissociation constant (unit M) of the reaction between mouse antibodies and recombinant purified human IL-12 p70 or recombinant purified human IL-12 p40 was then calculated from the kinetic rate constants by the following formula: KD=koff/kₒₙ. Binding is recorded as a function of time and kinetic rate constants are calculated. In this assay, on-rates as fast as 10⁶M⁻¹ s⁻¹ and off-rates as slow as 10⁻⁶ can be measured. […]

B1: CDR grafted anti IL-12p40 antibody 8E1.1 (antibody, human IgG1, kappa, L234A L235A, V domains shown)
VH: EVQLVESGGGLVQPGGSLRLSCAASGFTFSDYGMVWVRQAPGKGLEWVGSISSGSSNIYYADTVKGRFTISRDDSKNSLYLQMNSLKTEDTAVYYCARNPYWGQGTTVTVSS
VL: DIQMTQSPSSLSASVGDRVTITCKASQNVGTNVAWYQQKPEKAPKSLIYSASHRYSGVPSRFSGSGSGTDFTLTISSLQPEDFATYYCQQYNSYPLTFGGGTKVEIKR
notes: Full-length CDR-grafted antibody, COS cells
Turning to B1, in experiment [1], the “Av. IC50 (nM) Cyno IL-12, PHA blast assay” value stood at 4.6 nM. Further, in experiment [2], the “Av. IC50 (nM) Hu IL-12, PHA blast assay” value worked out at 2.8 nM. Moreover, in experiment [3], the Kd was found to be 1.7 nM, the koff turned out to be 0.00087 s⁻¹ and the kon amounted to 520000 M⁻¹ s⁻¹.

B2: CDR grafted anti IL-12p40 antibody 1D4.1 (antibody, human IgG1, kappa, L234A L235A, V domains shown)
VH: EVTLRESGPALVKPTQTLTLTCTFSGFSLSKSVMGVSWIRQPPGKALEWLAHIYWDDDKYYNPSLKSRLTISKDTSKNQVVLTMTNMDPVDTATYYCARRGIRSAMDYWGQGTTVTVSS
VL: DIVMTQSPDSLAVSLGERATINCKASQSVSNDVAWYQQKPGQPPKLLIYYASNRYTGVPDRFSGSGSGTDFTLTISSLQAEDVAVYYCQQDYNSPWTFGGGTKVEIKR
notes: as for B1
Regarding B2, the “Av. IC50 (nM) Cyno IL-12, PHA blast assay” value in experiment [1] turned out to be 1.5 nM. Also, the “Av. IC50 (nM) Hu IL-12, PHA blast assay” value in experiment [2] was found to be 0.47 nM. In addition, in experiment [3], the Kd is 0.12 nM, the koff was 2.9e-05 s⁻¹ and the kon was 260000 M⁻¹ s⁻¹.

B3: CDR grafted anti IL-12p40 antibody 1A6.1 (antibody, human IgG1, kappa, L234A L235A, V domains shown)
VH: EVTLRESGPALVKPTQTLTLTCTFSGFSLSTSGMGVSWIRQPPGKALEWLAHIWWDGDNYYNPSLKSRLTISKDTSKNQVVLTMTNMDPVDTATYYCARRTRVNYAMDYWGQGTTVTVSS
VL: DIVMTQSPDSLAVSLGERATINCKASQSVSNDVAWYQQKPGQPPKLLIYYASNRYTGVPDRFSGSGSGTDFTLTISSLQAEDVAVYYCQQDYNSPWTFGGGTKVEIKR
notes: as for B1
In the case of B3, in experiment [1], the “Av. IC50 (nM) Cyno IL-12, PHA blast assay” value was found to be 0.57 nM. For the same molecule, the “Av. IC50 (nM) Hu IL-12, PHA blast assay” value in experiment [2] worked out at 0.48 nM. Further, in experiment [3], the Kd came out at 0.27 nM, the koff was determined as 2.9e-05 s⁻¹ and the kon came to 110000 M⁻¹ s⁻¹.

B4: CDR grafted anti IL-12p40 antibody 1D4.2 (antibody, human IgG1, kappa, L234A L235A, V domains shown)
VH: EVTLKESGPVLVKPTETLTLTCTVSGFSLSKSVMGVSWIRQPPGKALEWLAHIYWDDDKYYNPSLKSRLTISKDTSKSQVVLTMTNMDPVDTATYYCARRGIRSAMDYWGQGTTVTVSS
VL: EIVMTQSPATLSVSPGERATLSCKASQSVSNDVAWYQQKPGQAPRLLIYYASNRYTGIPARFSGSGSGTEFTLTISSLQSEDFAVYYCQQDYNSPWTFGGGTKVEIKR
notes: as for B1
Turning to B4, in experiment [1], the “Av. IC50 (nM) Cyno IL-12, PHA blast assay” value was found to be 3 nM. For the same molecule, the “Av. IC50 (nM) Hu IL-12, PHA blast assay” value in experiment [2] stood at 3 nM. Moreover, in experiment [3], the dissociation constant Kd stood at 1.7 nM, the koff stood at 0.00026 s⁻¹ and the kon amounted to 160000 M⁻¹ s⁻¹.

B5: CDR grafted anti IL-12p40 antibody 3G7.1 (antibody, human IgG1, kappa, L234A L235A, V domains shown)
VH: EVQLVQSGAEVKKPGSSVKVSCKASGGTFSDYWIEWVRQAPGQGLEWMGGFSHGSGSTNYNEKFKGRVTITADKSTSTAYMELSSLRSEDTAVYYCARRRFRGMDYWGQGTTVTVSS
VL: DIVMTQSPDSLAVSLGERATINCKASQSVSNDVAWYQQKPGQPPKLLIYYASNRYTGVPDRFSGSGSGTDFTLTISSLQAEDVAVYYCQQDYSSPWSFGGGTKVEIKR
notes: as for B1
For B5, the “Av. IC50 (nM) Cyno IL-12, PHA blast assay” value in experiment [1] stood at 1.2 nM. Besides, in experiment [2], the “Av. IC50 (nM) Hu IL-12, PHA blast assay” value was found to be 0.56 nM. Also, in experiment [3], the Kd was 0.22 nM, the koff came out at 9.1e-05 s⁻¹ and the kon is 420000 M⁻¹ s⁻¹.

B6: CDR grafted anti IL-12p40 antibody 1A6.6 (antibody, human IgG1, kappa, L234A L235A, V domains shown)
VH: EVTLKESGPVLVKPTETLTLTCTVSGFSLSTSGMGVSWIRQPPGKALEWLAHIWWDGDNYYNPSLKSRLTISKDTSKSQVVLTMTNMDPVDTATYYCARRTRVNYAMDYWGQGTTVTVSS
VL: DIVMTQSPDSLAVSLGERATINCKASQSVSNDVAWYQQKPGQPPKLLIYYASNRYTGVPDRFSGSGSGTDFTLTISSLQAEDVAVYYCQQDYNSPWTFGGGTKVEIKR
notes: as for B1
Turning to B6, the “Av. IC50 (nM) Cyno IL-12, PHA blast assay” value in experiment [1] came to 0.14 nM. The “Av. IC50 (nM) Hu IL-12, PHA blast assay” value in experiment [2] turned out to be 0.59 nM.

B7: CDR grafted anti IL-12p40 antibody 1D4.3 (antibody, human IgG1, kappa, L234A L235A, V domains shown)
VH: EVTLRESGPALVKPTQTLTLTCTFSGFSLSKSVMGVSWIRQPPGKALEWLAHIYWDDDKYYNPSLKSRLTISKDTSKNQVVLTMTNMDPVDTATYYCARRGIRSAMDYWGQGTTVTVSS
VL: EIVMTQSPATLSVSPGERATLSCKASQSVSNDVAWYQQKPGQAPRLLIYYASNRYTGIPARFSGSGSGTEFTLTISSLQSEDFAVYYCQQDYNSPWTFGGGTKVEIKR
notes: as for B1
B7: the “Av. IC50 (nM) Cyno IL-12, PHA blast assay” value in experiment [1] is 1.6 nM. Also, the “Av. IC50 (nM) Hu IL-12, PHA blast assay” value in experiment [2] came out at 0.83 nM. For the same molecule, in experiment [3], the Kd came to 0.25 nM, the koff was 5.3e-05 s⁻¹ and the kon came to 210000 M⁻¹ s⁻¹.

B8: CDR grafted anti IL-12p40 antibody 1A6.2 (antibody, human IgG1, kappa, L234A L235A, V domains shown)
VH: EVTLKESGPVLVKPTETLTLTCTVSGFSLSTSGMGVSWIRQPPGKALEWLAHIWWDGDNYYNPSLKSRLTISKDTSKSQVVLTMTNMDPVDTATYYCARRTRVNYAMDYWGQGTTVTVSS
VL: EIVMTQSPATLSVSPGERATLSCKASQSVSNDVAWYQQKPGQAPRLLIYYASNRYTGIPARFSGSGSGTEFTLTISSLQSEDFAVYYCQQDYNSPWTFGGGTKVEIKR
notes: as for B1
B8: the “Av. IC50 (nM) Cyno IL-12, PHA blast assay” value in experiment [1] was 0.84 nM. Besides, the “Av. IC50 (nM) Hu IL-12, PHA blast assay” value in experiment [2] amounted to 1.1 nM. Besides, in experiment [3], the Kd amounted to 0.54 nM, the koff was determined as 5.4e-05 s⁻¹ and the kon was 100000 M⁻¹ s⁻¹.

B9: CDR grafted anti IL-12p40 antibody 3G7.2 (antibody, human IgG1, kappa, L234A L235A, V domains shown)
VH: EVQLVQSGAEVKKPGASVKVSCKASGYTFTDYWIEWVRQAPGQGLEWMGGFSHGSGSTNYNEKFKGRVTMTTDTSTSTAYMELRSLRSDDTAVYYCARRRFRGMDYWGQGTTVTVSS
VL: EIVMTQSPATLSVSPGERATLSCKASQSVSNDVAWYQQKPGQAPRLLIYYASNRYTGIPARFSGSGSGTEFTLTISSLQSEDFAVYYCQQDYSSPWSFGGGTKVEIKR
notes: as for B1
For B9, in experiment [1], the “Av. IC50 (nM) Cyno IL-12, PHA blast assay” value turned out to be 0.7 nM. In addition, in experiment [2], the “Av. IC50 (nM) Hu IL-12, PHA blast assay” value came out at 0.24 nM. Besides, in experiment [3], the Kd was determined as 0.23 nM, the koff was found to be 0.00014 s⁻¹ and the kon worked out at 610000 M⁻¹ s⁻¹.

B10: CDR grafted anti IL-12p40 antibody 1A6.5 (antibody, human IgG1, kappa, L234A L235A, V domains shown)
VH: EVTLRESGPALVKPTQTLTLTCTFSGFSLSTSGMGVSWIRQPPGKALEWLAHIWWDGDNYYNPSLKSRLTISKDTSKNQVVLTMTNMDPVDTATYYCARRTRVNYAMDYWGQGTTVTVSS
VL: EIVMTQSPATLSVSPGERATLSCKASQSVSNDVAWYQQKPGQAPRLLIYYASNRYTGIPARFSGSGSGTEFTLTISSLQSEDFAVYYCQQDYNSPWTFGGGTKVEIKR
notes: as for B1
On to B10, for which the “Av. IC50 (nM) Cyno IL-12, PHA blast assay” value in experiment [1] stood at 1.1 nM. Besides, the “Av. IC50 (nM) Hu IL-12, PHA blast assay” value in experiment [2] was 1.9 nM. In experiment [3], the Kd turned out to be 0.43 nM, the koff was 5.6e-05 s⁻¹ and the kon was found to be 130000 M⁻¹ s⁻¹.

In general, Kd refers to a measure of binding affinity in units of concentration. As usually defined, the koff is a measure of how fast the partners let go of each other. Usually kon stands for the rate constant with which the complex forms.
